In article PMC9482650, “Quantitative fragmentomics allow affinity mapping of interactomes” (Nature Communications, 2022):

T1: DFNB31_1, Q9P202
T1 sequence (Q9P202 135-233, limits assumed, looked up): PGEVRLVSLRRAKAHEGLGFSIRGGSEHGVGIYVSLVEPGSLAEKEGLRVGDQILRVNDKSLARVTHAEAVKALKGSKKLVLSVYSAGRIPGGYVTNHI

T2: LIN7C, Q9NUP9
T2 sequence (Q9NUP9 88-185, limits assumed, looked up): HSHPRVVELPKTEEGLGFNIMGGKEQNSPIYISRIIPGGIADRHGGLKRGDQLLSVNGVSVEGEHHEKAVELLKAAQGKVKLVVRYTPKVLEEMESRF

T3: LRRC7, Q96NW7
T3 sequence (Q96NW7 1440-1537, limits assumed, looked up): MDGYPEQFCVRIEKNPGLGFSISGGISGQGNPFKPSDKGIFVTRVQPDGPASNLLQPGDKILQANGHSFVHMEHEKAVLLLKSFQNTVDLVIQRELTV

T4: MPDZ_12, O75970
T4 sequence (O75970 1857-1958, limits assumed, looked up): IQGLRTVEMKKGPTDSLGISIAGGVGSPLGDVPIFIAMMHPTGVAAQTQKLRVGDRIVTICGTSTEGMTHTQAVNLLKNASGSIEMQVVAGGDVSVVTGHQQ

T5: RHPN1, Q8TCX5
T5 sequence (Q8TCX5 508-602, limits assumed, looked up): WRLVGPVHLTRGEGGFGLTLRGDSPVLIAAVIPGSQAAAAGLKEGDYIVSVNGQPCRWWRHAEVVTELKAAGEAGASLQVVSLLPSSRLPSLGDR

T6: SHANK1, Q9Y566
T6 sequence (Q9Y566 658-767, limits assumed, looked up): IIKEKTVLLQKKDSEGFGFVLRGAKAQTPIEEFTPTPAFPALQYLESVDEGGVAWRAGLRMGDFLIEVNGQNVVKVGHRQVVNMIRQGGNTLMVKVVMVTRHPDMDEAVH

T7: SNTG2, Q9NY99
T7 sequence (Q9NY99 68-166, limits assumed, looked up): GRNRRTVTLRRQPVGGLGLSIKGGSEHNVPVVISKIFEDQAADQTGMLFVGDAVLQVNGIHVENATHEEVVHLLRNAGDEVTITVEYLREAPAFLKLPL

T8: SYNJ2BP, P57105
T8 sequence (P57105 8-110, limits assumed, looked up): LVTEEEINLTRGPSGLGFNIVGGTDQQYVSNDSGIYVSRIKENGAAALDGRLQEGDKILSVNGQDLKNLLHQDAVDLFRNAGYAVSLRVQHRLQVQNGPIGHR

T9: TJP3_3, O95049
T9 sequence (O95049 375-456, limits assumed, looked up): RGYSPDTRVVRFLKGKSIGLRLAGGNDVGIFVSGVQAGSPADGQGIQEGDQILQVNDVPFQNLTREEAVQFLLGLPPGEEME


Assays:
Assay in all cases: holdup assay
Parameters in all cases: key: below the threshold = too weak to quantify, mostly under pKd 3.1 to 4
Conditions in all cases: plain residues with an end cap or a label only (N-terminal biotin on a linker: ado-ado)
DFNB31_1, Q9P202 = target: T1, DFNB31_1, Q9P202
DLG1_2, Q12959 = target: DLG1_2, Q12959
Sequence of DLG1_2, Q12959 (Q12959 314-412): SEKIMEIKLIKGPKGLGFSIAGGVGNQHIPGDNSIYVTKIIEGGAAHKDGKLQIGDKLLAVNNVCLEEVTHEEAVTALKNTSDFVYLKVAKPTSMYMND

DLG4_2, P78352 = target: DLG4_2, P78352
Sequence of DLG4_2, P78352 (P78352 155-259): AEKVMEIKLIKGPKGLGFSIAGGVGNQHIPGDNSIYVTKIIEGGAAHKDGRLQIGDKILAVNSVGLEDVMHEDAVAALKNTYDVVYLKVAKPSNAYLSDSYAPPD

FRMPD2_1, Q68DX3 = target: FRMPD2_1, Q68DX3
Sequence of FRMPD2_1, Q68DX3 (Q68DX3 770-861): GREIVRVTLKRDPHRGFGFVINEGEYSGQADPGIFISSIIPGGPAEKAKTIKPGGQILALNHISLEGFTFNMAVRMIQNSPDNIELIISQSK

FRMPD2_3, Q68DX3 = target: FRMPD2_3, Q68DX3
Sequence of FRMPD2_3, Q68DX3 (Q68DX3 1073-1166): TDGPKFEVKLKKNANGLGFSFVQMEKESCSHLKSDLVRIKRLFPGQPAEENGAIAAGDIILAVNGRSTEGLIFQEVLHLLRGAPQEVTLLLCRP

FRMPD3, Q5JV73 = target: FRMPD3, Q5JV73
Sequence of FRMPD3, Q5JV73 (Q5JV73 12-100): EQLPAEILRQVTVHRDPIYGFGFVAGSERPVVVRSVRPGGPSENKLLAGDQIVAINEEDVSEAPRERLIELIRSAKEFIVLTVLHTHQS

FRMPD4, Q14CM0 = target: FRMPD4, Q14CM0
Sequence of FRMPD4, Q14CM0 (Q14CM0 67-160): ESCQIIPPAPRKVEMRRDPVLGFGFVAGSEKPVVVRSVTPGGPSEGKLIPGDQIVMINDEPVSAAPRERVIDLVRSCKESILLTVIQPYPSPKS

HTRA2, O43464 = target: HTRA2, O43464
Sequence of HTRA2, O43464 (O43464 355-458): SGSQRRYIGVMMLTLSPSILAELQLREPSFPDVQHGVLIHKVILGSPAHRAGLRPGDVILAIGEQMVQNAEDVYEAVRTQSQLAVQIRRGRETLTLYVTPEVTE

IL16_3, Q14005 = target: IL16_3, Q14005
Sequence of IL16_3, Q14005 (Q14005 1107-1207): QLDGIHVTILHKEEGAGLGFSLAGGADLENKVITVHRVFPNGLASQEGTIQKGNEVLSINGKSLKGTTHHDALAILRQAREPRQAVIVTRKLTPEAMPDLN

Inadl_10, Q8NI35 = target: Inadl_10, Q8NI35
Sequence of Inadl_10, Q8NI35 (Q8NI35 1673-1763): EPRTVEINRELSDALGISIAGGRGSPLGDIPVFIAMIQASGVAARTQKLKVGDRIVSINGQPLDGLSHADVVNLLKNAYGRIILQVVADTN

Inadl_5, Q8NI35 = target: Inadl_5, Q8NI35
Sequence of Inadl_5, Q8NI35 (Q8NI35 673-780): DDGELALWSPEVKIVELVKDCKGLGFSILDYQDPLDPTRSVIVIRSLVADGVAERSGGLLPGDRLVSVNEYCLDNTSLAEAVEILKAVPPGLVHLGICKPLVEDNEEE

Inadl_8, Q8NI35 = target: Inadl_8, Q8NI35
Sequence of Inadl_8, Q8NI35 (Q8NI35 1425-1530): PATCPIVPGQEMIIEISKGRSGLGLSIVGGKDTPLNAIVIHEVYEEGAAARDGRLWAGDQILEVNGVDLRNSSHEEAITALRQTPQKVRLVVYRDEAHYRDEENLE

LIN7C, Q9NUP9 = target: T2, LIN7C, Q9NUP9
LNX1_1, Q8TBB1 = target: LNX1_1, Q8TBB1
Sequence of LNX1_1, Q8TBB1 (Q8TBB1 261-371): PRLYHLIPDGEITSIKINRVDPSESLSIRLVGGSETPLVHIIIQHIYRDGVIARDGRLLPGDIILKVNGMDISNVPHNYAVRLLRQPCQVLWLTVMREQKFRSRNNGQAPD

LRRC7, Q96NW7 = target: T3, LRRC7, Q96NW7
MAGI1_1, Q96QZ7 = target: MAGI1_1, Q96QZ7
Sequence of MAGI1_1, Q96QZ7 (Q96QZ7 1-106): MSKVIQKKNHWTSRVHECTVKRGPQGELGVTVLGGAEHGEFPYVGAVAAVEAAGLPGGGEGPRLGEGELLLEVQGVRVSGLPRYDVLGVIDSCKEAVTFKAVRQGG

MAGI3_2, Q5TCQ9 = target: MAGI3_2, Q5TCQ9
Sequence of MAGI3_2, Q5TCQ9 (Q5TCQ9 398-503): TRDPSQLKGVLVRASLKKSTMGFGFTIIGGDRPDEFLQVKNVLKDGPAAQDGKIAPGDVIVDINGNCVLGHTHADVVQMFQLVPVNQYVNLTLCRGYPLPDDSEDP

MPDZ_12, O75970 = target: T4, MPDZ_12, O75970
NHERF4_1, Q86UT5-2 = target: NHERF4_1, Q86UT5-2
Sequence of NHERF4_1, Q86UT5-2 (Q86UT5 other isoform, or with tags, fused parts or gaps): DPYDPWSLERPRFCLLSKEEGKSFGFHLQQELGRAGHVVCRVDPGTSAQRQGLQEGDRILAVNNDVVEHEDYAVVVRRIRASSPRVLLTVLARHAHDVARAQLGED

PDZRN4_1, Q6ZMN7 = target: PDZRN4_1, Q6ZMN7
Sequence of PDZRN4_1, Q6ZMN7 (Q6ZMN7 213-318): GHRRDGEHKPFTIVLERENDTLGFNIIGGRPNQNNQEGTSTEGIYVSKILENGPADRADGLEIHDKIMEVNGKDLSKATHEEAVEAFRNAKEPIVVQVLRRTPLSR

PICK1, Q9NRD5 = target: PICK1, Q9NRD5
Sequence of PICK1, Q9NRD5 (Q9NRD5 17-115): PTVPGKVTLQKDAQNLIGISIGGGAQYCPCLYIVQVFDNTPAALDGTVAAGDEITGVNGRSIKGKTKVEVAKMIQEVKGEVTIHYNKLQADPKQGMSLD

RHPN1, Q8TCX5 = target: T5, RHPN1, Q8TCX5
SCRIB_2, Q14160 = target: SCRIB_2, Q14160
Sequence of SCRIB_2, Q14160 (Q14160 857-960): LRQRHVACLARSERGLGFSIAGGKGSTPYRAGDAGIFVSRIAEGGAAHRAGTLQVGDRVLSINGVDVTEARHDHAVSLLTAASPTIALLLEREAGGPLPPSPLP

SHANK1, Q9Y566 = target: T6, SHANK1, Q9Y566
SNTG2, Q9NY99 = target: T7, SNTG2, Q9NY99
SYNJ2BP, P57105 = target: T8, SYNJ2BP, P57105
TJP2_1, Q9UDY2 = target: TJP2_1, Q9UDY2
Sequence of TJP2_1, Q9UDY2 (Q9UDY2 24-128): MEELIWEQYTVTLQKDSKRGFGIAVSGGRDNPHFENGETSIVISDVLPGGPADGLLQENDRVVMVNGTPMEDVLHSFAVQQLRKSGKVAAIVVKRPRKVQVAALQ

TJP3_3, O95049 = target: T9, TJP3_3, O95049

Binder | pKd (DFNB31_1, Q9P202) | pKd (DLG1_2, Q12959) | pKd (DLG4_2, P78352) | pKd (FRMPD2_1, Q68DX3) | pKd (FRMPD2_3, Q68DX3) | pKd (FRMPD3, Q5JV73) | pKd (FRMPD4, Q14CM0) | pKd (HTRA2, O43464) | pKd (IL16_3, Q14005) | pKd (Inadl_10, Q8NI35) | pKd (Inadl_5, Q8NI35) | pKd (Inadl_8, Q8NI35) | pKd (LIN7C, Q9NUP9) | pKd (LNX1_1, Q8TBB1) | pKd (LRRC7, Q96NW7) | pKd (MAGI1_1, Q96QZ7) | pKd (MAGI3_2, Q5TCQ9) | pKd (MPDZ_12, O75970) | pKd (NHERF4_1, Q86UT5-2) | pKd (PDZRN4_1, Q6ZMN7) | other results
IDESKKEWLI [CNTNAP2, Q9UHC6] | below the threshold | below the threshold | below the threshold | below the threshold | 3.51 | below the threshold | below the threshold | 3.49 | below the threshold | below the threshold | below the threshold | below the threshold | below the threshold | below the threshold | below the threshold | below the threshold | 4.06 | below the threshold | below the threshold | below the threshold | pKd (PICK1, Q9NRD5): 4.19; pKd (RHPN1, Q8TCX5): below the threshold; pKd (SCRIB_2, Q14160): below the threshold; pKd (SHANK1, Q9Y566): below the threshold; pKd (SNTG2, Q9NY99): below the threshold; pKd (SYNJ2BP, P57105): below the threshold; pKd (TJP2_1, Q9UDY2): below the threshold; pKd (TJP3_3, O95049): below the threshold
SRSVVESDEL [MYPN, Q86TC9] | below the threshold | below the threshold | below the threshold | below the threshold | below the threshold | below the threshold | 3.72 | below the threshold | below the threshold | below the threshold | below the threshold | below the threshold | below the threshold | below the threshold | below the threshold | 3.53 | below the threshold | below the threshold | 4.29 | below the threshold | pKd (PICK1, Q9NRD5): below the threshold; pKd (RHPN1, Q8TCX5): below the threshold; pKd (SCRIB_2, Q14160): below the threshold; pKd (SHANK1, Q9Y566): below the threshold; pKd (SNTG2, Q9NY99): below the threshold; pKd (SYNJ2BP, P57105): below the threshold; pKd (TJP2_1, Q9UDY2): below the threshold; pKd (TJP3_3, O95049): below the threshold
PSVGSKKTVL [REELD1, A0A1B0GV85] | below the threshold | 3.79 | below the threshold | below the threshold | below the threshold | below the threshold | 3.53 | below the threshold | below the threshold | below the threshold | below the threshold | below the threshold | below the threshold | below the threshold | below the threshold | below the threshold | 3.51 | below the threshold | 3.95 | below the threshold | pKd (PICK1, Q9NRD5): below the threshold; pKd (RHPN1, Q8TCX5): 3.92; pKd (SCRIB_2, Q14160): below the threshold; pKd (SHANK1, Q9Y566): 3.93; pKd (SNTG2, Q9NY99): 3.66; pKd (SYNJ2BP, P57105): below the threshold; pKd (TJP2_1, Q9UDY2): 4.1; pKd (TJP3_3, O95049): below the threshold
DTKNYKQTSV [CRIPT, Q9P021] | 4.32 | 5.07 | 4.9 | below the threshold | below the threshold | below the threshold | below the threshold | below the threshold | below the threshold | below the threshold | below the threshold | 4.66 | 3.5 | 3.78 | 3.92 | below the threshold | 4.72 | below the threshold | 3.53 | 4.12 | pKd (PICK1, Q9NRD5): 4.15; pKd (RHPN1, Q8TCX5): 4.07; pKd (SCRIB_2, Q14160): 4.61; pKd (SHANK1, Q9Y566): below the threshold; pKd (SNTG2, Q9NY99): 4.37; pKd (SYNJ2BP, P57105): 5.12; pKd (TJP2_1, Q9UDY2): below the threshold; pKd (TJP3_3, O95049): below the threshold
